Assay results from the DeepSol protein solubility set.

Test: soluble on expression in E. coli; label from the status in PepcDB or PDB records

| Sequence | soluble on expression in E. coli |
| --- | --- |
| MGSDKIHHHHHHMNIDEAKQLANYFSDGSPGYILEFNNLEWDLYTKKIVGFGIQERFGGSKGNSFKEFLVSEDISDHLKFKLIYSLNETMKQIASIRQFENPSSYKSPKMNPLVTLLIEEAYHKKDSARLLNGTKFSKEVNLEYIQQLPTRISKDIQNKDFDSVLTKSNTMIDEVLKYIIENTKGKSIDNNTVRSKDLRNQAFERLNIKIDKDMDKRIKALVGALNTLSDKILEMRNSQGDAHAQGSRRIVINEEEAILTANSAMILCEYLFRKYEKRKRFSDAKES | not soluble |
| TSALAPVAAIIPPPPDVQPVIDKLAEYVARNGLKFETSVRAKNDQRFEFLQPWHQYNAYYEFKKQFFLQKEGGDSMQAVSAPE | soluble |
| MEFTDPYTVDSLQCFNGFHYRGYRINQSDTDKVNRLIAIIRQEREKNIGPAAGDIIEYTCRNGDWFQSAHIEEICDGHFKICLSGSIPFCYESGDGVGYNVHEGIWTYPKRAALKPAGIREKQFRTWGHAGKCANGEVYFMACVRAWQYTEPEPLYGRYTTRNWSKYHINRQPDPEHDGEFFYMTEGFTLYSREELDRLTGILHGKLFDGIYSNSLVLWGYHMKWEILTEQEWNETKAEIHISFLGKSPVKIITCDDTHTITVYKKK | not soluble |
| MLMNEFEKACETLRKFMAYMLEKDMKSWTELWDENAVFEFPYAPEGSPKRIEGKAAIYDYIKDYPKQIHLSSFTAPTVYRSADSNTVIAEFQCDGHVIETGLPYRQSYISVIETRDGRIVRYRDYWNPLVVKEAFGGSFLQTEESGK | soluble |
| MQRKLNQSLLLAEAYFKRKFTMPEVNYELRGIKAGVAYLQKNEIKFNRTLLQENTDEFIRQVVPHELAHLIVYQMFGRVKPHGKEWQLVMNEIFKLPADTCHQFDIKNVQGKTFEYRCACQTHFLTIRRHNKIMKENIEYLCKKCRGKLVFVDDEELEHHHHHH | not soluble |
| MGSDKIHHHHHHMPTAAAQENIRWEECPPQVDIASAQCGSIDVPMHYSDPSLGDISVGFVKVPAQGEKHGTIFGNSGGPGGDAYSFFGSQSMNWPEAMYQNYDLVAVQPRGMVGSTPVNCDNIAPGYDFLSLLTREGAFVKESCEIGTPGYTSSLTTDNTANDWERVRQALGDDKISIFGLSYGTYLGSVYATRYPQHTDKVVLDSAMAPSLAWNGIMASQEQGYKNSLNDFFTWVAENNDTYGLGTTPLAVYQNWSNKIVAETGTNPTVAPPPAQVGDVPPAFAWAGQAGADMMTATNPTSVQLQGLATQLLNPGSNQSLSPLLNVTRAYIPQPSTWPMLAGAISGQTPIPDVTDTGDDPYVIESINASVNMQRMVMCNENTVAPDPVAMARMAWTSMVTGDVFDIYSVKFSSGQACSGITPTSGRQPTDGSQLAVQPLLLQGTSDPQTPYWTHNELADAMNAHVVTVNGPGHGQSIGGTNQAINDIVVDYLRTGHTDATWVEGNTPTPITAG | not soluble |
| MHHHHHHSSGLVPRGSGMKETAAAKFERQHMDSPDLGTDDDDKAMGCQKAVSPAAETAAVSPSVDAARLEPRVEERDGFWVLKEEFRSGINPAEKVKIEKDPMKLFIEDGISDLATLSMEEVDKSKHNKDDIDVRLKWLGLFHRRKHHYGRFMMRLKLPNGVTTSEQTRYLASVIKKYGKDGCADVTTRQNWQIRGVVLPDVPEIIKGLESVGLTSLQSGMDNVRNPVGNPLAGIDPHEIVDTRPFTNLISQFVTANSRGNLSITNLPRKWNPCVIGSHDLYEHPHINDLAYMPATKNGKFGFNLLVGGFFSIKRCEEAIPLDAWVSAEDVVPVCKAMLEAFRDLGFRGNRQKCRMMWLIDELGMEAFRGEVEKRMPEQVLERASSEELVQKDWERREYLGVHPQKQQGLSFVGLHIPVGRLQADEMEELARIADVYGSGELRLTVEQNIIIPNVENSKIDSLLNEPLLKERYSPEPPILMKGLVACTGSQFCGQAIIETKARALKVTEEVQRLVSVTRPVRMHWTGCPNSCGQVQVADIGFMGCMTRDENGKPCEGADVFVGGRIGSDSHLGDIYKKAVPCKDLVPVVAEILINQFGAVPREREEAE | soluble |
| MRRYLEHLMIKLSEKGVFLASNNEIIAEEHFTGEIKKEEAKKGTIAWSILSSHNTSGNMDKLKIKFDSLASHDITFVGIVQTAKASGMERFPLPYVLTNCHNSLCAVGGTINGDDHVFGLSAAQRYGGIFVPPHIAVIHQYMREMMAGGGKMILGSDSHTRYGALGTMAVGEGGGELVKQLLNDTWDIDYPGVVAVHLTGKPAPYVGPQDVALAIIGAVFKNGYVKNKVMEFVGPGVSALSTDFRNSVDVMTTETTCLSSVWQTDEEVHNWLALHGRGQDYCQLNPQPMAYYDGCISVDLSAIKPMIALPFHPSNVYEIDTLNQNLTDILREIEIESERVAHGKAKLSLLDKVENGRLKVQQGIIAGCSGGNYENVIAAANALRGQSCGNDTFSLAVYPSSQPVFMDLAKKGVVADLIGAGAIIRTAFCGPCFGAGDTPINNGLSIRHTTRNFPNREGSKPANGQMSAVALMDARSIAATAANGGYLTSASELDCWDNVPEYAFDVTPYKNRVYQGFVKGATQQPLIYGPNIKDWPELGALTDNIVLKVCSKILDEVTTTDELIPSGETSSYRSNPIGLAEFTLSRRDPGYVSRSKATAELENQRLAGNVSELTEVFARIKQIAGQEHIDPLQTEIGSMVYAVKPGDGSAREQAASCQRVIGGLANIAEEYATKRYRSNVINWGMLPLQMAEVPTFEVGDYIYIPGIKAALDNPGTTFKGYVIHEDAPVTEITLYMESLTAEEREIIKAGSLINFNKNRQM | not soluble |
| MSLTTSYHIGNVVCAIIEREGRFLIARRPLGKHLARKWEFPGSKVETGESEAEALERELIEELGVRMEIVERLMPVEHCYADRSLRLIAFHCRIAAGAPNAGEHEELRWIDIGEADDYDFPEADLPILAEYRQKIAASVQSEGHHHHHH | not soluble |
| MLEIRHLKTLHALREADSLVDAAERLHLTQSALSHQFKELEERMGMPLFVRKTKPVRFTSAGLRLLQLADSMLPQLRSAERDIARLAGGTAGRLHMAIECHSCFQWLMPTIDQFRDAWPEVELDLSSGFSFAPLPALARGDLDLVVTSDPLELPGITYVPLFTYEAMLAVANQHALASKPYIVPEDLLPETLITYPVERDRLDIFTRFLEPADIEPAQVRTSELTVMMMQLVASGRGVCGMPHWALHEYSSRGYVKAKRLGEKGLFATLYAGIRADMLDAPYMRDFLLTAKDTSFSTLDGVSVVR | not soluble |
| MRVAFCLYKYFPFGGLQRDFMRIAQTVAARGHQVRVYTQSWEGECPDNFELIRVPVKSRTNHGRNAEYYAWVQHHLRDHPVDRVVGFNKMPGLDVYYAADVCYAEKVAQEKGFFYRLTSRYRHYAAFERATFEHGKPTQLLMLTNKQIADFQKHYQTEAERFHILPPGIYPDRKYSQQIPNSRQIYRQKNGISEQQKLLLQVGSDFTRKGVDRSIEALASLPESLRQNTVLYVVGQDKPKKFAALAERSGVGTNVHFFSGRNDIAELMAAADLLLHPAYQEAAGIVLLEAITAGLPVLTTAVCGYAHYIVDANCGEAMTEPFRQDALNEVLLKALTQPSLRNAWAENARYYADTQDLYSLPEKAADIITGDLDG | not soluble |
| AAIDPNRIVALEWLPVELLLALGIVPYGVADTINYRLWVSEPPLPDSVIDVGLRTEPNLELLTEMKPSFMVWSAGYGPSPEMLARIAPGRGFNFSDGKQPLAMARKSLTEMADLLNLQSAAETHLAQYEDFIRSMKPRFVKRGARPLLLTTLIDPRHMLVFGPNSLFQEILDEYGIPNAWQGETNFWGSTAVSIDRLAAYKDVDVLCFDHDNSKDMDALMATPLWQAMPFVRAGRFQRVPAVWFYGATLSAMHFVRVLDNAIGGKA | soluble |
| MAHHHHHHMSTSVVARHPQMRPSRKRQAQRQHPRQQRSVAHKAQRAPSSGHGASSVEHLPRDAVVHVALRQQHRPAGQAHSRIKRHRVVLRRQKVVPHKRHGGARHTHSPTHRHRVLAQQEVAVNKRHHGAAAGRNAALHRHAQPQRRLHQQSVHVQRTARRQRHAANHQHANSVAEHSRHLRSRNCQHAPRQIHVVHHEARRRVAKVVGAAVRNTRLCYQHRVHHSDARARRKPVRHQHTAARTRLKTADQHINALASRRVGPPPNNVQARSAQKRAVRQRHVAHAP | not soluble |
| QTLRALAERAARIEQDPAAGDYMSALRELPFIRELMAGRLPLQWAPARMVSDDPAKGLGKAPPAGLLTQQLRNILGEPRRTLDLVSPYFVPAEAGTQAFAALARGGAQVRVLTNALEATDVAVVHSGYAKRRKALLQAGVRLYEMRRSYAGPKPQGRGRFGSSGSSLHAKTFGVDGERVFIGSFNFDPRSANLNTELGFVIESPDMARHIAATFDQDIPAATYEVRLDDDGSLYWLE | not soluble |
| MGSDKIHHHHHHMKHYEAYGIATRNTKIQGQFYRLADEEVFIHHFEPLQKNNDIILLLHGYMDHSLTSARLINRLISEGFEVVALDWPGHGLSKGETYHIRSFRQYNTIFLQLVQDMIERWGSDRIHLIAHSTGAGVVLDGLTNNLKKMPTGGIVLTSPLIKLPSHRIGKLFLPFVRKWRKQVRRIYRTNSSDPLFMKAIEEDPLQHEVIPLTWFDAYLQWHEDMRRRAKCSAENVTILQGTRDTTVHWKANMKWLAETLPSAERILIDGGGHHLWNEGDLIRELVFRFILKRLKKT | not soluble |
| MTENQNGKVDPVAIRELISQGIPMKRKESEIKRSQSEEQCVESECPNDEPMSKDFSRVSRRERRKSDKGDYESLFICRNTLKNRKTIYIAKELQDTLAEIVMSMRNRDMTIGIYVENIILHHLETYKDEINRLAEMKFRKLL | not soluble |
| MRVVVVGTRGSALALAQTRFVVERLKETWPETEFKIRTIKTRGDQGASPREEAIFVKEIQEALLSREIDIAVHSLKDLPTESPRGLKIASVPRRQDPRDVFLGKAAKRLKDLPPGAVVGTSSVRRKAQILALRPDLVVRDLRGNVDTRLAALGNGEYDGIVLAAAGLIRLDLRNRIDEFLDPGEVLPAPGQGALALEVREGDDLAEELCYALHHPPSYHRVRAERAFLRGLGAGCLAPVGALAHVEEDGTLRLEGVLLTPDGKSFIRAEIEGDVSEAEELGLDLARDVLEQGGREILAQIR | soluble |
| MQEGVKVVVDSRELRSEVVKRLKLLGVKLEVKTLDVGDYIISEDVAIERKSANDLIQSIIDGGLFDQVKRLKEAYSRPIMIVEGSLYGIRNVHPNAIRGAIAAVTVDFGVPIIFSSTPEETAQYIFLIAKREQEEREKPVRIR | soluble |
| MGSDKIHHHHHHMINSGNGTDYESMRFDRRGQAEAFDAIGDRYDEAFPHKEGQVSVGEWLIGSLPPRSRVLDLGCGTGMPTARQLTDAGFDVVGVDLSGGMVELARAYVPGATFHQLDVADLRPGGSRDLGRFDAVAAFFSLLMLPRPEIPLALLTVRHLLVPGGLFALAMVEADVDDFSIPFVGHTIRVSGYLREDLHTVIETAGFEIVKEFSYTYAPSVADVPPEEQVFLCCRRRG | not soluble |
| MGSDKIHHHHHHMIISASRRTDIPAFYSQWFFNRIKEGYVLVPNPFNPKMISKVSLHPAVIDCIVFWTKNPAPMIDKLDHLQDYKYYFQFTLNPYGEKLENNLPSVNKRIDIFKRLSDKIGKEKVIWRYDPILTNEEYDVSFHKEAFAQIAYGLKDHTEKCMLGFIDHYQHIRTAVGQFNIQPLRKEEIEEIAVSFRNTINEYPAIQLDTCTSKVDLRHLGIPAGLCIDKELIERITGYPLLAKKDKNQRNVCNCIESIDIGTYESCLNGCIYCYAIKGNYNSVEYNTKKHDRNSPLLIGHPAEDDVVKEREMKSLRNNQYSLF | not soluble |
| MTTKNKRVLQKCAYREEFKGDMERSTAATSKLPLEVELSRNSKGLIIILSSPSGTGKSSLAKALLKIDNNLRLSISATTRKPRLGEVEGINYYFKTGLEFEELVKQNKFLEYAKIYDNYYGTPKEYVEMLLNQGLDVLFDIDWQGARSIKKNATNVVTIFVLPPNIEVLEQRLRNRATDNEEAIKLRMQLAQNEISHANEYDYVVTNDDFDRTLKKIHAIIVAARDKAF | soluble |
